Assay results as given in patent US20260226168A1.

Assays:
hGPRC5D [1] = biological target: hGPRC5D (UniProt Q9NZD1); assay: flow cytometry on RPMI-8226 cells; negative control (EC50 '/': curve could not be fitted)
hGPRC5D [2] = biological target: hGPRC5D (UniProt Q9NZD1); assay: flow cytometry on MM.1S cells; negative control (EC50 '/': curve could not be fitted)
hGPRC5D [3] = biological target: hGPRC5D (UniProt Q9NZD1); assay: flow cytometry on NCI-H929 cells; negative control (EC50 '/': curve could not be fitted)

Chain of hGPRC5D (Q9NZD1 whole entry): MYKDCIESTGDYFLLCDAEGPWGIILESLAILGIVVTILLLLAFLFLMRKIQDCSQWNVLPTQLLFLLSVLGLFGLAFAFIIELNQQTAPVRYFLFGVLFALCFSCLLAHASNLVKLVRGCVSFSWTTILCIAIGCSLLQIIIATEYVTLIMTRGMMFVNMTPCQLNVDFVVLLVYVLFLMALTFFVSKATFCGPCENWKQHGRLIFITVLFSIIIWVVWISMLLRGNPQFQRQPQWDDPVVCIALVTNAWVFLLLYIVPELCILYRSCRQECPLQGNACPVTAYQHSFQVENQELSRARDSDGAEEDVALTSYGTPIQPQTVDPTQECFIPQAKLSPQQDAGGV

With “hIgG1 monoclonal antibody (Biointron, Cat. No. B117901)” as the substance, how does the Top(MFI) (hGPRC5D [1]) read?
Its Top(MFI) is 3860.

And the Top(MFI) (hGPRC5D [2])?
Its Top(MFI) is 6770.

What about the Top(MFI) (hGPRC5D [3]) of the same substance?
The Top(MFI) was 4180.
